Laboratory results: the DeepSol protein solubility set

assay: soluble on expression in E. coli; label from the status in PepcDB or PDB records

Sequence | soluble on expression in E. coli
MRVVAIGVGGAGGRIVDALHEDDSTREASYLAGGSVLETDRGALAALDAVSEEDRHHFGHSGFGGDADSPRERIEALAEDDHVEMRRAVDSAITSDAAAIIVIAGVGGATGSVIAPKLTDALQRIYDRPVYAVSVLPATHEEVPPENPARAIAAFESAANAQLVFDNDAWVDDRNDVEDVTDGLNAELAMRLGALFSAGEAVTAESVGQRVVDASEVISTLDEGGLATIGFARQPLGTDGDDGSLLDRARELVGMDETTVDEVESIKAVETTLRQATNGRLTFDCPRDAARSGLLVVSGPPEWLHQTAVSDGQSWLADEIGSVQLRTGDNPMPGGDELTILVLLGGIRGAPRIKEIQAATDLEHHHHHH | soluble
MTSRGDSREKILHTASRLSQLQGYHATGLNQIVKESGAPKGSLYHFFPNGKEELAIEAVTYTGKIVEHLIQQSMDESSDPVEAIQLFIKKTASQFDNTESIKGIPVGLLASETALISEPLRTVCMKVFKSWEAVFARKLMENGFAEEEANQLGTLINSMIEGGIMLSLTNKDKTPLLLIAEQIPVLVRKKG | soluble
MGSDKIHHHHHHMIDKLEFFLALARERHFGRAAEECGVTQPTLSAAIRQLEEQLGVILVNRGSRFQGLTPEGQRVLEWARRIVSDSRTMREEMRAARKGLSGHMRLAAVPTTLSMVPLITAPFQEKHPDVTFSVLSTTSLQILALLENLEIDAGLTYLENEPLGRVTSVPLQIEQYHLVTAAGTALSDRESVTWKEVSDIRLCLLTADMQNRRIINQHFAEAGAVPKPTLESNSMIVLFSHVRTGRWASIMPYNVAKSFGFHEDIRMIPIVDPDVRHTVGLVATYREPFTPLVSALLHEARILGERNQVQ | not soluble
MLHFIDSSESEDDLDELPRHLPPVIRRLAPLRHATSQYNLRSTGSTSSDSSTASENDKCSDFSSLKSRRASCIELNKEDEFKVMAADKLLMAMENMKHATSSQAIRWRTTSTESLPGIIKSNRRHSKGPLELIQGLMAKKAAVGRPAKFKNLGVVGPPTLISSTVSLHEISGFVRRDRFWGAETESLFSQFEV | not soluble
GPGSMDVSKRPREELHKEQCLSFVKKLWAADTLAMFHYPVSATEVPGYYDVVETPMDLSTIRKNIEQGTYRTDAEVENDVVLMLSNALDFNEKGSQWHDLAKQFKKQYLTLARESGLSFDADQAFIPTKKVRDDESTLRKAEKKGEEKLEDVLQAMEKDKEIPLEQLRAMYARRTTRGKADQQSSDFSSGRGNDDSDEVVSSDEEDTSDSGSGSYDTEEDEDSLDSESASKDDDDDK | soluble
MTRLLDATWEKELLAASARLSQAQEENFLDLVDAAEGRIDETIARVLLRTFSAKDDYGTQERVVSVLSTGADQVVIDAIVEEMPRLALEAPEWAQTLLGTEVEFRPDLTARALSQAPTICRIAAENILKNEDFQSQYPNAALVLGQLDA | not soluble
MSTTHNVPQGDLVLRTLAMPADTNANGDIFGGWLMSQMDIGGAILAKEIAHGRVVTVRVEGMTFLRPVAVGDVVCCYARCVQKGTTSVSINIEVWVKKVASEPIGQRYKATEALFKYVAVDPEGKPRALPVE | soluble
MGSDKIHHHHHHMETVYFKTLLAVVETGSFSRAAERLCITQSAVSQRIKLLEGRYGYTLIDRAGNFLVPTAAGELVIQKARVIIEHELALLGALKLLPAKTVISFCCSPCFGTVFLPALVRDFVLRNSEQIDFRCVLGSSQGAVRGLRDTDFNIIVIEHCTPLDLSPYDVISLPNDEIIFVSNPATGLDVPEPDLSQLLNLPVIMRKEGCSGTEQLAANLARFGKVLEDFRSVTGLDDPRLIVQTVKTEPYLAFVPKSLVLKELAEGSLRAHTVKGFSHARFRSLVTAPKRYSDPCRSNFIKAVMETVCHISAVSMPGDGPGSRWHKKRPSGRRAPLNSAVTNNAAI | not soluble
GPGSRGIDGRQVVRREIKWANMAADWNKTNTKMHAKLKERCRKGIPSRFRGVAWQLLMGSFHQLNSEENNGVYVALRDKKLADKETDVIISRDLARTFPTHVLFQDPGGVGQTFLRNILHAYAGCDPEVGYVQGMGFLVAALSTQMAEGGVLLGPA | not soluble
GPGSMSGTLLKEELLQLDNKRRSIMRDIEEAMTFLNSTPVGLRGSLVDSEGFPRDDCDLYAVRRARHTVNCGHNDLKSIEATIHEKLSQLHEECRGEAEEQMQRDKMKKKSEDDQRRRDEQKQVMSSKEPFVRVVDVATGSPAEEGGLICGHLIVQYGDVDAEKVLEGGFGEMARVTSSYEGQMLRVWVRSPSDDDCGGARELFIVPQRWRGEGLLGCTFEPMKLN | soluble
HHHHHHMAKKVNWYVSCSPRSPEKIQPELKVLANFEGSYWKGVKGYKAQEAFAKELAALPQFLGTTYKKEAAFSTRDRVAPMKTYGFVFVDEEGYLRITEAGKMLANNRRPKDVFLKQLVKWQYPSFQHKGKEYPEEEWSINPLVFVLSLLKKVGGLSKLDIAMFCLTATNNNQVDEIAEEIMQFRNEREKIKGQNKKLEFTENYFFKRFEKIYGNVGKIREGKSDSSHKSKIETKMRNARDVADATTRYFRYTGLFVARGNQLVLNPEKSDLIDEIISSSKVVKNYTRVEEFHEYYGNPSLPQFSFETKEQLLDLAHRIRDENTRLAEQLVEHFPNVKVEIQVLEDIYNSLNKKVDVETLKDVIYHAKELQLELKKKKLQADFNDPRQLEEVIDLLEVYHEKKNVIEEKIKARFIANKNTVFEWLTWNGFIILGNALEYKNNFVIDEELQPVTHAAGNQPDMEIIYEDFIVLGEVTTSKGATQFKMESEPVTRHYLNKKKELEKQGVEKELYCLFIAPEINKNTFEEFMKYNIVQNTRIIPLSLKQFNMLLMVQKKLIEKGRRLSSYDIKNLMVSLYRTTIECERKYTQIKAGLEETLNNWVVDKEVRF | soluble
MTALTWTDERVEQLKKLWEGGLSASQIAAELGNVTRNAVIGKVHRLGLSGRAKSPTSAAPRPRKARPVQQMMRVTRPVARGNTALAHAFEVEAEPDPIAFDNVVPMNQRLSLLELNEATCHWPVGDPSSPEFFFCGGKSLPGLPYCAHHSRIAYQPVGDRRRAAPKTTRLEHHHHHH | soluble
MIHLEHINLVVDDIPKALIFYQAAFPHWRIRGGGESTWYSKPRNWTHFGDDYQYIAFSDNGEGENRDLTGHQIGLAHFAFVVSDLDAIITRLTQAGFPIAKEGMEDPYRRNIYFFDAHGFEVEFVEYLSDIPAERNRYLEHHHHHH | soluble
MPSGLFMDLLPFLLDANLSATNPPAIPHWWKRQPLIPNLLSQELKNYLKLNVKEKNIQIADQVIIDETAGEVVIGANTRICHGAVIQGPVVIGANCLIGNWICPYISRHLLSLNPLQARCRRYSRGERLEHHHHHH | not soluble
MEIQFLGTGAGQPAKARNVSSLVLKLLDEINEVWMFDCGEGTQRQILETTIKPRKVKKIFITHMHGDHVFGLPGFLSSRAFQANEEQTDLDIYGPVGIKSFVMTALRTSGSRLPYRIHFHEFDESSLGKIMETDKFTVYAEKLDHTIFCMGYRVVQKDLEGTLDAEALKLAGVPFGPLFGKVKNGENVTLEDGREIIAKDYISEPKKGKVITILGDTRKTDASIRLALGADVLVHESTYGKGDERIAKSHGHSTNMQAADIAKQANAKRLLLNHVSARFMGRDCWQMEEDAKTIFSNTHLVRDLEEVGILEHHHHHH | soluble
MIFYLLPSEKKQSTMDLVKEDYFSIWENREKNRFPELNPYRKELIEYFKVETKPLAPAWRRYNGKFWDSLEFWCLPPEVQQNIIDRGIIISPLFGMLGVNDPIPRYSVTFQDKYKGKKLTEFWKEVLKDISKKMFESSVIFDFLTTEQRETLTFPEDVTFVRFDYIRKGKKVVNPMPHRAYTLRYIVEKNVDLNSLEKINFYDYKVSKIEKEGNVIRVIMESEGRYI | not soluble
MAAKVVLDFEKPLYELEEKLNEMRVYLKSGEVDSMSEGRAGLKREIESLEAKVESLRKTIYKNLTRWQKVQLARHPERPYTLDYIYMMMKDFVELSGDRNFGDDKAIIGGFARLEDESAGFSQSVMVIGHQKGRDTKSNLYRNFGMAQPEGYRKALRLMKLAEKFRKPVITLIDTPGAFPGIEAEERGQAEAIARNLYEMAALKVPVICVIIGEGASGGAIGIGVGDRILMAENAWYSVISPESCSSILWRSWNFKEQAAEALKLTADDLLAQGIIDRIVTEPLGGAHHNPEQMASTLKSILIEELQGLLTKDARTLVDERIAKFSGMGVWEES | not soluble
MPKSDTKQKKRRSNKNRLRIKRARLFGPKDIDQVKEDIESQKKIEYDPELPGGGHFYCCECDRHFITEKVLMEHKRSNPHRRRAKEVREVAHSQRDAEWAVGLT | not soluble
MFTGSIVALVTPMDEKGNVSRSCLKKLIDYHVANGTSAIVSVGTTGESATLSHDEHGDVVMMTLELADGRIPVIAGTGANATAEAISLTQRFNDSGIVGCLTVTPYYNRPTQEGLFQHFKAIAEHTDLPQILYNVPSRTGCDMLPETVGRLAEIKNIIAIKEATGNLTRVHQIKELVSDDFILLSGDDASALDFMQLGGHGVISVTANVAAREMADMCKLAAEGQFAEARAINQRLMPLHNKLFVEPNPIPVKWACKALGLVATDTLRLPMTPITDHGRDIVKAALQHAGLL | not soluble
MKLKRYEVLADEITASIQAGTRRAGDRLPSVRQTSASRGLSATTVFKAYYLLEARGLIRARDRSGYYVVGKPKALPPELEAGAPAESRRVDVDVSDRVLHVLQLTMRRDVVPFGSAFPHPSLFPHARLARAMASSVAALDPWSSVDDLSAGNTRLRRAIALRYLADGVQVRTEDIVITNGALEALNLCLGAVTRPGDSVLIESPTFYSALQSLERLGLRAIEVPAHPREGIELDALARAIDTHRPAACWLMTNFQNPLGSLMPEDKKRALVELLAARDVPLIEDDVYSELYFGAQRPLPAKAYDESGIVMSCSSFSKSLAPGWRIGWVLGGRYADRILRGKLALSLSTSAPSQAALATYLEHGGYDRHLRQLRQTLEQQRNQVMEAIARHFPPGTRTTHPDGGYFLWVALPPQVDALAVHRAALSLGVSTAPGPIFSVQDRFRHCLRLNYGHPFDARAQDGLATLGKLIARQC | not soluble
MSLTDIKMIALGGVREYGKNFYLVEINDSMFILDAGLKYPENEQLGVDLVIPNLDYVIENKGKVQGIFLSHGHADAIGALPYLLAEVSAPVFGSELTIELAKLFVKSNNSTKKFNNFHVVDSDTEIEFKDGLVSFFRTTHSIPESMGIVIGTDKGNIVYTGDFKFDQAAREGYQTDLLRLAEIGKEGVLALLSDSVNATSNDQIASESEVGEEMDSVISDADGRVIVAAVASNLVRIQQVFDSATAHGRRVVLTGTDAENIVRTALRLEKLMITDERLLIKPKDMSKFEDHELIILEAGRMGEPINSLQKMAAGRHRYVQIKEGDLVYIVTTPSTAKEAMVARVENLIYKAGGSVKLITQNLRVSGHANGRDLQLLMNLLKPQYLFPVQGEYRDLAAHAKLAEEVGIFPENIHILKRGDIMVLNDEGFLHEGGVPASDVMIDGNAIGDVGNIVLRDRKVLSEDGIFIVAITVSKKEKRIISKAKVNTRGFVYVKKSHDILRESAELVNTTVGNYLKKDTFDWGELKGNVRDDLSKFLFEQTKRRPAILPVVMEVREGHHHHHH | soluble
MGAFLDKPKMEKHNAQGQGNGLRYGLSSMQGWRVEMEDAHTAVIGLPSGLESWSFFAVYDGHAGSQVAKYCCEHLLDHITNNQDFKGSAGAPSVENVKNGIRTGFLEIDEHMRVMSEKKHGADRSGSTAVGVLISPQHTYFINCGDSRGLLCRNRKVHFFTQDHKPSNPLEKERIQNAGGSVMIQRVNGSLAVSRALGDFDYKCVHGKGPTEQLVSPEPEVHDIERSEEDDQFIILACDGIWDVMGNEELCDFVRSRLEVTDDLEKVCNEVVDTCLYKGSRDNMSVILICFPNAPKVSPEAVKKEAELDKYLECRVEEIIKKQGEGVPDLVHVMRTLASENIPSLPPGGELASKRNVIEAVYNRLNPYKNDDTDSTSTDDMWLEHHHHHH | soluble
